B1: Zinc finger protein 473 (Homo sapiens), Q8WTR7 (parent)
chain: MAEEFVTLKDVGMDFTLGDWEQLGLEQGDTFWDTALDNCQDLFLLDPPRPNLTSHPDGSEDLEPLAGGSPEATSPDVTETKNSPLMEDFFEEGFSQEIIEMLSKDGFWNSNFGEACIEDTWLDSLLGDPESLLRSDIATNGESPTECKSHELKRGLSPVSTVSTGEDSMVHNVSEKTLTPAKSKEYRGEFFSYSDHSQQDSVQEGEKPYQCSECGKSFSGSYRLTQHWITHTREKPTVHQECEQGFDRNASLSVYPKTHTGYKFYVCNEYGTTFSQSTYLWHQKTHTGEKPCKSQDSDHPPSHDTQPGEHQKTHTDSKSYNCNECGKAFTRIFHLTRHQKIHTRKRYECSKCQATFNLRKHLIQHQKTHAAKTTSECQECGKIFRHSSLLIEHQALHAGEEPYKCNERGKSFRHNSTLKIHQRVHSGEKPYKCSECGKAFHRHTHLNEHRRIHTGYRPHKCQECVRSFSRPSHLMRHQAIHTAEKPYSCAECKETFSDNNRLVQHQKMHTVKTPYECQECGERFICGSTLKCHESVHAREKQGFFVSGKILDQNPEQKEKCFKCNKCEKTFSCSKYLTQHERIHTRGVKPFECDQCGKAFGQSTRLIHHQRIHSRVRLYKWGEQGKAISSASLIKLQSFHTKEHPFKCNECGKTFSHSAHLSKHQLIHAGENPFKCSKCDRVFTQRNYLVQHERTHARKKPLVCNECGKTFRQSSCLSKHQRIHSGEKPYVCDYCGKAFGLSAELVRHQRIHTGEKPYVCQECGKAFTQSSCLSIHRRVHTGEKPYRCGECGKAFAQKANLTQHQRIHTGEKPYSCNVCGKAFVLSAHLNQHLRVHTQETLYQCQRCQKAFRCHSSLSRHQRVHNKQQYCL

Variants of: B1
Conditions: with aen_human AEN

| effect of a mutation on the interaction | Variant |
| --- | --- |
| with no effect | T654I |

Variants of: B1
Conditions: with gpt2l_human GPATCH2L

| effect of a mutation on the interaction | Variant |
| --- | --- |
| with no effect | T654I |
| with no effect | S535N |
| with no effect | R605Q |

Variants of: B1
Conditions: with tri41_human TRIM41, Q8WV44

| effect of a mutation on the interaction | Variant |
| --- | --- |
| with no effect | T654I |
| with no effect | S535N |
| with no effect | N82S |

Variants of: B1
Conditions: with zn792_human ZNF792, Q3KQV3
Sequence of zn792_human ZNF792, Q3KQV3 (Q3KQV3 whole entry): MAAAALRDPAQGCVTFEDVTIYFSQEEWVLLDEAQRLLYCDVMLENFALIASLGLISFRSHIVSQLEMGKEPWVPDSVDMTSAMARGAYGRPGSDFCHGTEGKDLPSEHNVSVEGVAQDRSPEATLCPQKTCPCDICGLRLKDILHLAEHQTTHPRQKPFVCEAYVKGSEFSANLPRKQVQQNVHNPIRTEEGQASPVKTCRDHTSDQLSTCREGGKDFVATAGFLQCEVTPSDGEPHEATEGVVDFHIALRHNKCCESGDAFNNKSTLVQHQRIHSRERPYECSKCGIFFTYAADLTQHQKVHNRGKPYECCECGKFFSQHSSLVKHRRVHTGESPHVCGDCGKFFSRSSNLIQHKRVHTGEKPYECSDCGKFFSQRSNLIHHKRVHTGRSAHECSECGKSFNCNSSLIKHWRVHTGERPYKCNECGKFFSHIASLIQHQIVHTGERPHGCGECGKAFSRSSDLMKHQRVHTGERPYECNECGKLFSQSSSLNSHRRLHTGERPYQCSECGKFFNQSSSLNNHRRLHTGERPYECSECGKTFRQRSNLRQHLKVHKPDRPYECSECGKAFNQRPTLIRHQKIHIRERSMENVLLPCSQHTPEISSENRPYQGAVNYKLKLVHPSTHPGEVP

| effect of a mutation on the interaction | Variant |
| --- | --- |
| with no effect | T654I |

Variants of: B1
Conditions: with zn792_human ZNF792, Q3KQV3
Remark: another data set of the same source

| effect of a mutation on the interaction | Variant |
| --- | --- |
| with no effect | S535N |
| with no effect | N82S |
| with no effect | R605Q |

Variants of: B1
Conditions: with aen_human AEN
Remark: another data set of the same source

| effect of a mutation on the interaction | Variant |
| --- | --- |
| with no effect | S535N |
| with no effect | N82S |
| with no effect | R605Q |
